Patent US20250333501A1

Assays:
[1] = target: CLDN6 endogenously expressed by human cancer cell lines (ARK2, OVCA429) (human) (UniProt P56747); assay: FACS, 0.3 µg Ab, ARK2 cells
[2] = target: CLDN6 endogenously expressed by human cancer cell lines (ARK2, OVCA429) (human) (UniProt P56747); assay: FACS, 1.5 µg Ab, OVCA429 cells
[3] = target: mouse CLDN6 fused to GFP, expressed on engineered HEK293T cells (mouse) (UniProt Q9Z262); assay: FACS, 293T clone with mouse CLDN6, dose not given
[4] = target: human CLDN6 fused to GFP, expressed on engineered HEK293T cells (HEK293T-CLDN6-mGFP) (human) (UniProt P56747); assay: FACS, 1.5 µg Ab, 293T clone with human CLDN6
Sequence of human CLDN6 fused to GFP, expressed on engineered HEK293T cells (HEK293T-CLDN6-mGFP) (human) (P56747 whole entry, change not shown, the tested form may be a part): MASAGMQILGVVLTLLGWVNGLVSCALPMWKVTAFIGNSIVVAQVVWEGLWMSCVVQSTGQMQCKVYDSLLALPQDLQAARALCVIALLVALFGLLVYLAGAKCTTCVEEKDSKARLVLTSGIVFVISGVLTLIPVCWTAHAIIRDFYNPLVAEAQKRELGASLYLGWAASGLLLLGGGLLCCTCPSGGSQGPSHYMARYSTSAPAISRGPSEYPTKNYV

[5] = target: human CLDN6 fused to GFP, expressed on engineered HEK293T cells (HEK293T-CLDN6-mGFP) (human) (UniProt P56747); assay: FACS, 0.3 µg Ab, 293T clone with human CLDN6
[6] = target: CLDN6 endogenously expressed by human cancer cell lines (ARK2, OVCA429) (human) (UniProt P56747); assay: FACS, 1.5 µg Ab, ARK2 cells

Sequence of CLDN6 endogenously expressed by human cancer cell lines (ARK2, OVCA429) (human) (P56747 whole entry, the tested form may be a part): as the sequence (P56747 whole entry, change not shown, the tested form may be a part) above
Sequence of mouse CLDN6 fused to GFP, expressed on engineered HEK293T cells (mouse) (Q9Z262 whole entry, change not shown, the tested form may be a part): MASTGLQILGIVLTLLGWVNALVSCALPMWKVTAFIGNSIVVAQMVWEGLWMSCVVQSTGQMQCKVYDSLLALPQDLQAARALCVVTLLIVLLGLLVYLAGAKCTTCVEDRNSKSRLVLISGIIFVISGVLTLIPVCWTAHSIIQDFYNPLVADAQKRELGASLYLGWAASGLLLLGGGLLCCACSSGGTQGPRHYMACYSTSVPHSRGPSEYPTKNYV

FACS fluorescence [1]: 1350
FACS fluorescence [2]: 886
FACS fluorescence [3]: 1060
FACS fluorescence [4]: 768
FACS fluorescence [5]: 768
FACS fluorescence [6]: 1350
Substance: 2nd Ab only (antibody)
